The values below come from publication PMC4605301, “hSSB1 (NABP2/ OBFC2B) is required for the repair of 8-oxo-guanine by the hOGG1-mediated base excision repair pathway”.

For this series, the target named is hSSB1 (NABP2/OBFC2B) (Homo sapiens, UniProt Q9BQ15 1-211). The series can be described thus: EMSA; 0-2 uM hSSB1; 90 fmol DNA in 10 ul; 8-oxoG opposite C (pairing base inferred); EMSA: 50 mM Tris-HCl pH 7.5, 100 mM KCl, 100 ug/ml BSA, 15 min at 37 C; 8% polyacrylamide gel. The settings on record: protein: recombinant; tags: N-terminal His6; label: 5' FAM; blunt. For orientation: A gel shift assay detects complexes by their altered migration in electrophoresis.
Chain of hSSB1 (NABP2/OBFC2B) (Q9BQ15 whole entry): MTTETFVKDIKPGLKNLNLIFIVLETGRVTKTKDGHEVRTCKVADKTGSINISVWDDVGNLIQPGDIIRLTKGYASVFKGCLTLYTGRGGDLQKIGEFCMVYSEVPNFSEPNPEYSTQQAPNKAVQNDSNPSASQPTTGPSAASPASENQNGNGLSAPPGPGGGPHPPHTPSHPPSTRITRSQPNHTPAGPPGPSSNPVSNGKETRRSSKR

B1: 8-oxoG:C dsDNA (dsDNA)
DNA 1: CTCTCCCTTCGCTCCTTTCCTCT
DNA 2: AGAGGAAAGGAGCGAAGGGAGAG
modifications: 8-oxoguanine at position 11 of strand 1 (written G)
In the case of B1, the binding result is reported as “binds”.
